Assay results reported in paper PMC10786891, “Massively parallel profiling of RNA-targeting CRISPR-Cas13d”.
Positions count from the first letter of the chain named. In names and notes the source's numbering stands.

B1: target 1 MT 5'PFS GGG 3'PFS CUU (mixed)
RNA 1: CACCCGUGCAAAAAUGCAGGGGUCUAAAACUGAGCGGAUAACCUCUCUAUGG
RNA 2: GGGAAUGGAUCCACAUCUACGAAUUCGGGCCAUAGAGAGGUUAUCCGCUCACUUAGAUCGGAAGAGCACACGU
B2: target 1 MT 5'PFS UGU 3'PFS UCU (mixed)
RNA 1: B1 RNA 1
RNA 2: B1 RNA 2 with G27U, G29U, C52U, U53C
B3: target 1 MT 5'PFS UUG 3'PFS UAC (mixed)
RNA 1: B1 RNA 1
RNA 2: B1 RNA 2 with G27U, G28U, C52U, U53A, U54C
B4: target 1 MT 5'PFS GUA 3'PFS GUU (mixed)
RNA 1: B1 RNA 1
RNA 2: B1 RNA 2 with G28U, G29A, C52G
B5: target 1 MT 5'PFS ACU 3'PFS CUA (mixed)
RNA 1: B1 RNA 1
RNA 2: B1 RNA 2 with G27A, G28C, G29U, U54A
B6: target 1 MT 5'PFS UCC 3'PFS AUG (mixed)
RNA 1: B1 RNA 1
RNA 2: B1 RNA 2 with G27U, G28C, G29C, C52A, U54G
B7: target 1 MT 5'PFS CAA 3'PFS UUA (mixed)
RNA 1: B1 RNA 1
RNA 2: B1 RNA 2 with G27C, G28A, G29A, C52U, U54A
B8: target 1 insU 3' of 17,insU 3' of 12 (mixed)
RNA 1: B1 RNA 1
RNA 2: GGGAAUGGAUCCACAUCUACGAAUUCGUACCAUAGUAGAGGUUUAUCCGCUCACCGAGAUCGGAAGAGCACACGU
B9: target 1 MT 5'PFS UUA 3'PFS AAA (mixed)
RNA 1: B1 RNA 1
RNA 2: B1 RNA 2 with G27U, G28U, G29A, C52A, U53A, U54A
B10: target 1 MT 5'PFS GUA 3'PFS GUG (mixed)
RNA 1: B1 RNA 1
RNA 2: B1 RNA 2 with G28U, G29A, C52G, U54G
B11: target 1 MT 5'PFS CUC 3'PFS CCU (mixed)
RNA 1: B1 RNA 1
RNA 2: B1 RNA 2 with G27C, G28U, G29C, U53C
B12: target 1 MT 5'PFS AGG 3'PFS CGA (mixed)
RNA 1: B1 RNA 1
RNA 2: B1 RNA 2 with G27A, U53G, U54A
B13: target 1 MT 5'PFS UUG 3'PFS UAU (mixed)
RNA 1: B1 RNA 1
RNA 2: B1 RNA 2 with G27U, G28U, C52U, U53A
B14: target 1 MT 5'PFS CUU 3'PFS AUA (mixed)
RNA 1: B1 RNA 1
RNA 2: B1 RNA 2 with G27C, G28U, G29U, C52A, U54A
B15: target 1 MT 5'PFS UUA 3'PFS AAC (mixed)
RNA 1: B1 RNA 1
RNA 2: B1 RNA 2 with G27U, G28U, G29A, C52A, U53A, U54C
B16: target 1 MT 5'PFS CUC 3'PFS UUA (mixed)
RNA 1: B1 RNA 1
RNA 2: B1 RNA 2 with G27C, G28U, G29C, C52U, U54A
B17: target 1 U19G,A20C (mixed)
RNA 1: B1 RNA 1
RNA 2: B1 RNA 2 with G28U, G29A, A32C, U33G, U53C, U54G
B18: target 1 MT 5'PFS UCC 3'PFS AUA (mixed)
RNA 1: B1 RNA 1
RNA 2: B1 RNA 2 with G27U, G28C, G29C, C52A, U54A
B19: target 1 MT 5'PFS CUC 3'PFS UUG (mixed)
RNA 1: B1 RNA 1
RNA 2: B1 RNA 2 with G27C, G28U, G29C, C52U, U54G
B20: target 1 MT 5'PFS CCG 3'PFS UGU (mixed)
RNA 1: B1 RNA 1
RNA 2: B1 RNA 2 with G27C, G28C, C52U, U53G
B21: target 1 MT 5'PFS UCC 3'PFS AUC (mixed)
RNA 1: B1 RNA 1
RNA 2: B1 RNA 2 with G27U, G28C, G29C, C52A, U54C
B22: target 1 MT 5'PFS UUG 3'PFS UAG (mixed)
RNA 1: B1 RNA 1
RNA 2: B1 RNA 2 with G27U, G28U, C52U, U53A, U54G
B23: target 1 MT 5'PFS GGA 3'PFS CAC (mixed)
RNA 1: B1 RNA 1
RNA 2: B1 RNA 2 with G29A, U53A, U54C
B24: target 1 MT 5'PFS UGU 3'PFS UCA (mixed)
RNA 1: B1 RNA 1
RNA 2: B1 RNA 2 with G27U, G29U, C52U, U53C, U54A
B25: target 1 MT 5'PFS GGA 3'PFS ACC (mixed)
RNA 1: B1 RNA 1
RNA 2: B1 RNA 2 with G29A, C52A, U53C, U54C
B26: target 1 MT 5'PFS UGU 3'PFS UCC (mixed)
RNA 1: B1 RNA 1
RNA 2: B1 RNA 2 with G27U, G29U, C52U, U53C, U54C
B27: target 1 MT 5'PFS GGA 3'PFS ACA (mixed)
RNA 1: B1 RNA 1
RNA 2: B1 RNA 2 with G29A, C52A, U53C, U54A
B28: target 1 MT 5'PFS GGA 3'PFS CAG (mixed)
RNA 1: B1 RNA 1
RNA 2: B1 RNA 2 with G29A, U53A, U54G
B29: target 1 MT 5'PFS GGA 3'PFS CAA (mixed)
RNA 1: B1 RNA 1
RNA 2: B1 RNA 2 with G29A, U53A, U54A
B30: target 1 MT 5'PFS UCG 3'PFS ACU (mixed)
RNA 1: B1 RNA 1
RNA 2: B1 RNA 2 with G27U, G28C, C52A, U53C
B31: target 1 MT 5'PFS CCG 3'PFS UGC (mixed)
RNA 1: B1 RNA 1
RNA 2: B1 RNA 2 with G27C, G28C, C52U, U53G, U54C
B32: target 1 MT 5'PFS CUC 3'PFS UUC (mixed)
RNA 1: B1 RNA 1
RNA 2: B1 RNA 2 with G27C, G28U, G29C, C52U, U54C
B33: target 1 MT 5'PFS ACU 3'PFS CUU (mixed)
RNA 1: B1 RNA 1
RNA 2: B1 RNA 2 with G27A, G28C, G29U
B34: target 1 MT 5'PFS GGA 3'PFS ACG (mixed)
RNA 1: B1 RNA 1
RNA 2: B1 RNA 2 with G29A, C52A, U53C, U54G
B35: target 1 MT 5'PFS GGA 3'PFS ACU (mixed)
RNA 1: B1 RNA 1
RNA 2: B1 RNA 2 with G29A, C52A, U53C
B36: target 1 MT 5'PFS GUA 3'PFS GUC (mixed)
RNA 1: B1 RNA 1
RNA 2: B1 RNA 2 with G28U, G29A, C52G, U54C
B37: target 1 MT 5'PFS UGU 3'PFS UCG (mixed)
RNA 1: B1 RNA 1
RNA 2: B1 RNA 2 with G27U, G29U, C52U, U53C, U54G
B38: target 1 MT 5'PFS CAU 3'PFS AUA (mixed)
RNA 1: B1 RNA 1
RNA 2: B1 RNA 2 with G27C, G28A, G29U, C52A, U54A
B39: target 1 insC 3' of 11,insA 3' of 11 (mixed)
RNA 1: B1 RNA 1
RNA 2: B8 RNA 2 with U36A, A37G, G38A, A39G, G41U, U42C, U43A

Biological target: T1, EsCas13d, nuclease-dead (Eubacterium siraeum, UniProt B0MS50, R295A;H300A;R849A;H854A)
T1 sequence: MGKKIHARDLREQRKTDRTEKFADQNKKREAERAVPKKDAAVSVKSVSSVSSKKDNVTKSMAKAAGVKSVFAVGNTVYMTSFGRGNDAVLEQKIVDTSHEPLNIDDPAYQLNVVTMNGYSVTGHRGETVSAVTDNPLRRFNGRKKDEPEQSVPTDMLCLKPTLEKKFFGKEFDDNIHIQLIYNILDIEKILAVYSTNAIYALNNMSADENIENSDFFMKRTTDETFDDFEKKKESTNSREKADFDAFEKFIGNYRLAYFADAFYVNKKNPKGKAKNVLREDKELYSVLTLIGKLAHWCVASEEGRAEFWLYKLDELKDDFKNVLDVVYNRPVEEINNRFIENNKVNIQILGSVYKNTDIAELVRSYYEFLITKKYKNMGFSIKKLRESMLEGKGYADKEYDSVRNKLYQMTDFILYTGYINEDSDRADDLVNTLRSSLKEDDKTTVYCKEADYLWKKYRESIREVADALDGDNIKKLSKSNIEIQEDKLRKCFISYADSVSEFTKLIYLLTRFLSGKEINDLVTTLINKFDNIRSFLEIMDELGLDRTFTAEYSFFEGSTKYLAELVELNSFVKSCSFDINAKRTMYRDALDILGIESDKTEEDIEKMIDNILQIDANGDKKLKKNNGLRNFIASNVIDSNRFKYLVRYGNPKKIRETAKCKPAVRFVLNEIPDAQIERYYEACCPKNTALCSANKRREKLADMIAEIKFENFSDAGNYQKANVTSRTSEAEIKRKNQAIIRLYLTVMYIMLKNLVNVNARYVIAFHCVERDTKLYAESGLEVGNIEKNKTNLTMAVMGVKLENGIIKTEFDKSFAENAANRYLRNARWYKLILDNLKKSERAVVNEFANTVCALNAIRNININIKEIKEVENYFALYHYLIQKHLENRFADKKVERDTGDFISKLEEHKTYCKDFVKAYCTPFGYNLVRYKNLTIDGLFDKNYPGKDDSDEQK
Test: crRNA (strand 1, pre-loaded); Mg2+; 40 mM Tris-HCl pH 7.5, 150 mM NaCl, 6 mM MgCl2, 1 mM DTT, 0.1% Tween-20, 0.2 mg/ml BSA; 25 C; 10 min per concentration, then washed
Conditions: tags: His6-TwinStrep-SUMO cleaved; N-terminal SNAP kept (SNAP-Surface 488); label: 3' end held by stalled T7 RNA polymerase

Row | Binder | Kd [nM]
1 | B1 | 24.5 ± 9
2 | B2 | 28.5 ± 6.5
3 | B3 | 42.5 ± 13.5
4 | B4 | 11.4 ± 1.05
5 | B5 | ~34.5
6 | B6 | 39 ± 17
7 | B7 | 7.25 ± 2
8 | B8 | 16.4 ± 3.2
9 | B9 | ~85
10 | B10 | 8.5 ± 0.95
11 | B11 | ~40
12 | B12 | ~73
13 | B13 | 16.9 ± 2.45
14 | B14 | ~50.5
15 | B15 | 34 ± 10.5
16 | B16 | ~43.5
17 | B17 | 80 ± 40
18 | B18 | 13.7 ± 5.05
19 | B19 | ~105
20 | B20 | 9.95 ± 2.7

Row | Binder | Kd [nM]
21 | B21 | 43.5 ± 17.5
22 | B22 | 47.5 ± 10.5
23 | B23 | 35.5 ± 15
24 | B24 | 47.5 ± 13
25 | B25 | 27.3 ± 7.15
26 | B26 | 39 ± 10.5
27 | B27 | 27 ± 5
28 | B28 | 24.5 ± 5
29 | B29 | 52 ± 16
30 | B30 | 28 ± 10
31 | B31 | 2.6 ± 0.75
32 | B32 | ~55
33 | B33 | 38 ± 13
34 | B34 | 20.5 ± 4
35 | B35 | 15.8 ± 2.95
36 | B36 | 9.35 ± 1
37 | B37 | 61 ± 20.5
38 | B38 | ~70
39 | B39 | 21.4 ± 1
